# Data as given in US20240269276A1 (HARBOUR BIOMED SHANGHAI, published 2024).
# T1: human CD73 on CHO-K1 cells overexpressing human CD73 (human, UniProt P21589 27-549)
# T1 construct: whole, on cells; also called CHO-K1-hCD73
# T1 sequence (looked up): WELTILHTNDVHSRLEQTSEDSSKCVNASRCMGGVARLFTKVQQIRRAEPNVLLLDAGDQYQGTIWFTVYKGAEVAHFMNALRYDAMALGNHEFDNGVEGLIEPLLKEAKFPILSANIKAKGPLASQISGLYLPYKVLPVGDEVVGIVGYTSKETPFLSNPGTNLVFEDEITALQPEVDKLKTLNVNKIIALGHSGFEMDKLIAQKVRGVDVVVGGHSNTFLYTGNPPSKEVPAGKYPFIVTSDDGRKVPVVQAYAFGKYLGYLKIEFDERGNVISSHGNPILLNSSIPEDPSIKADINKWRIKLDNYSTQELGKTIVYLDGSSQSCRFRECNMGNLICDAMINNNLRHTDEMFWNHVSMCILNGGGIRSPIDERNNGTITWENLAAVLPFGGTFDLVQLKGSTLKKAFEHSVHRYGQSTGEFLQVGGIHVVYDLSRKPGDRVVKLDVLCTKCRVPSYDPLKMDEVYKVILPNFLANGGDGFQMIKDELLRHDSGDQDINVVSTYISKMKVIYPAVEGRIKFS
# Key:
# [1] = biological target: T1, human CD73 on CHO-K1 cells …; experiment: flow cytometry on CHO-K1 cells overexpressing human CD73 (CHO-K1-hCD73) [continued) C]
# Description: (§1) In order to investigate the binding activity of the CD73×PD-L1 bispecific antibody to human CD73 and PD-L1, the binding experiment at the cellular level was performed using CHO-K1 cell strains overexpressing human CD73 or PD-L1 (CHO-K1-hCD73 or CHO-K1-hPD-L1). Briefly, the CHO-K1-hCD73 and CHO-K1-hPD-L1 cells were digested and resuspended in an F-12K complete medium, and the cell density was adjusted to 1×10⁶ cells/mL. The cells were seeded in a 96-well V-bottom plate (Corning, #3894) at 100 μL/well, followed by the addition at 100 μL/well and centrifugation at 500 g at 4° C. for 5 min, and then the supernatant was discarded. Antibodies were 3-fold diluted to a maximum final concentration of 50 nM, and a total of 8 concentrations were set. 100 μL of the diluted antibodies was added to the cells, and the cells were incubated away from light at 4° C for 1 h. Thereafter, the cells in each well were rinsed twice with 100 μL of pre-cooled PBS, and centrifuged at 500 g at 4° C. for 5 min, and then the supernatant was discarded. Then 100 μL of a fluorescent secondary antibody (goat anti-human IgG (H+L) secondary antibody, Alexa Fluor® 488 conjugate, Invitrogen, #A11013, diluted at the ratio of 1:1000) was added to each well. […] Finally, the cells in each well were resuspended in 200 μL of pre-cooled PBS, and the fluorescence signal values were read using a BD FACS CANTOII.
# [2] = biological target: T1, human CD73 on CHO-K1 cells …; experiment: flow cytometry on CHO-K1 cells overexpressing human CD73 (CHO-K1-hCD73)
# Description: In order to investigate the binding activity of the CD73×PD-L1 bispecific antibody to human CD73 and PD-L1, the binding experiment at the cellular level was performed using CHO-K1 cell strains overexpressing human CD73 or PD-L1 (CHO-K1-hCD73 or CHO-K1-hPD-L1). Briefly, the CHO-K1-hCD73 and CHO-K1-hPD-L1 cells were digested and resuspended in an F-12K complete medium, and the cell density was adjusted to 1×10⁶ cells/mL. The cells were seeded in a 96-well V-bottom plate (Corning, #3894) at 100 μL/well, followed by the addition at 100 μL/well and centrifugation at 500 g at 4° C. for 5 min, and then the supernatant was discarded. Antibodies were 3-fold diluted to a maximum final concentration of 50 nM, and a total of 8 concentrations were set. 100 μL of the diluted antibodies was added to the cells, and the cells were incubated away from light at 4° C for 1 h. Thereafter, the cells in each well were rinsed twice with 100 μL of pre-cooled PBS, and centrifuged at 500 g at 4° C. for 5 min, and then the supernatant was discarded. Then 100 μL of a fluorescent secondary antibody (goat anti-human IgG (H+L) secondary antibody, Alexa Fluor® 488 conjugate, Invitrogen, #A11013, diluted at the ratio of 1:1000) was added to each well. The plate was incubated away from light at 4° C. for 30 min. The cells in each well were then rinsed twice with 200 μL of pre-cooled PBS and centrifuged at 500 g at 4° C. for 5 min, and then the supernatant was discarded. Finally, the cells in each well were resuspended in 200 μL of pre-cooled PBS, and the fluorescence signal values were read using a BD FACS CANTOII.
# [3] = biological target: T1, human CD73 on CHO-K1 cells …; experiment: flow cytometry on CHO-K1 cells overexpressing human CD73 (CHO-K1-hCD73) [continued) D]
# Description: as §1
binder,measurement,setting,value
"PR000846 (antibody, human IgG1, kappa, L234A L235A, V domains shown, Anti-CD73 IgG (human IgG1 constant region, human Ig kappa), PTM removed; also called anti-CD73 antibody PR000846; parent monoclonal antibody PR000846) VH: QVQLVESGGGVAQPGRSLSLSCAASGFTFSDYGMHWVRQAPGKGLEWVALIWYDASFEYYADSVKGRFSISRDNSKNTLYLQMNSLRAEDTAVYYCVRDAQWGSRLDYWGQGTLVTVSS VL: KIVMTQSPATLSLSPGERATLSCRASQSVSRYLAWYQQKPGQAPRLLIYDASNRATGIPARFSGSGSGTDFTLTISSLEPEDFAVYYCQQRSNWIFTFGPGTKVDIKR",EC50,[1],1.73 nM
same,EC50,[2],0.352 nM
same,EC50,[3],0.737 nM
